{"source": "paper PMC11524583", "about": "“Neurons enhance blood–brain barrier function via upregulating claudin-5 and VE-cadherin expression due to glial cell line-derived neurotrophic factor secretion” (eLife, 2024)", "molecules": {"B1": {"name": "GDNF: glial cell line-derived neurotrophic factor, recombinant protein (R&D system) (protein, UniProt P39905 78-211, looked up)", "Glial cell line-derived …": "SPDKQMAVLPRRERNRQAAAANPENSRGKGRRGQRGKNRGCVLTAIHLNVTDLGLGYETKEELIFRYCSGSCDAAETTYDKILKNLSRNRRLVSDKVGQACCRPIAFDDDLSFLDDNLVYHILRKHSAKRCGCI"}}, "key": {"[1]": {"system": "hCMEC/D3 mono-culture BBB model", "assay": "TEER of hCMEC/D3 mono-culture BBB model", "type": "cell-based, Homo sapiens", "details": "for TEER: individual replicates"}, "VE-cadherin": {"system": "VE-cadherin", "assay": "Western blot of VE-cadherin expression in hCMEC/D3 cells", "type": "cell-based, Homo sapiens", "summary_of_the_method": "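hCMEC/D3 cells were cultured 6 days in 200 pg/ml GDNF or U251/SH-SY5Y co-culture conditioned medium, ±0.25–1.0 μg/ml anti-GDNF antibody, with medium changed every 24 hr. Alternatively, cells got 10 nM FOXO1, ETS1 or CDH5 siRNA for 12 hr, then GDNF medium for 72 hr. RIPA lysates were immunoblotted with ECL detection.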"}}, "note": "Where “and” joins values, the source holds several entries; their conditions need not be identical. Equal entries are not always repeated.", "data": [{"molecule": "B1", "values": [{"measurement": "TEER", "setting": "[1]; Figure 2M, Day3", "result": "61.71 Ω·cm2 and 62.7 Ω·cm2 and 62.37 Ω·cm2"}, {"measurement": "TEER", "setting": "[1]; Figure 2M, Day4", "result": "64.35 Ω·cm2 and 63.69 Ω·cm2 and 66 Ω·cm2 and 65.34 Ω·cm2"}, {"measurement": "TEER", "setting": "[1]; Figure 2M, Day5", "result": "68.31 Ω·cm2 and 66.99 Ω·cm2 and 67.65 Ω·cm2 and 67.32 Ω·cm2"}, {"measurement": "TEER", "setting": "[1]; Figure 2M, Day6", "result": "69.3 Ω·cm2 and 67.32 Ω·cm2 and 68.64 Ω·cm2 and 66.99 Ω·cm2"}, {"measurement": "TEER", "setting": "[1]; Figure 2O, Day3", "result": "71.61 Ω·cm2 and 69.3 Ω·cm2 and 68.64 Ω·cm2 and 69.63 Ω·cm2"}, {"measurement": "TEER", "setting": "[1]; Figure 2O, Day4", "result": "74.25 Ω·cm2 and 76.23 Ω·cm2 and 72.27 Ω·cm2 and 74.91 Ω·cm2"}, {"measurement": "TEER", "setting": "[1]; Figure 2O, Day5", "result": "77.22 Ω·cm2 and 72.93 Ω·cm2 and 74.58 Ω·cm2 and 77.55 Ω·cm2"}, {"measurement": "TEER", "setting": "[1]; Figure 2O, Day6", "result": "76.23 Ω·cm2 and 73.92 Ω·cm2 and 76.56 Ω·cm2"}, {"measurement": "TEER values", "setting": "[1]; hCMEC/D3 mono-culture, 200 pg/ml GDNF, day 6", "result": "significantly increased"}, {"measurement": "VE-cadherin/β-actin Relative Expression, Mean", "setting": "VE-cadherin; 50pg, Figure 2D, Con = 1.000", "result": 1.451}, {"measurement": "VE-cadherin/β-actin Relative Expression", "setting": "VE-cadherin; 50pg, Figure 2D, relative to Con, single replicates", "result": "1.462 and 1.352 and 1.497 and 1.494"}, {"measurement": "VE-cadherin/β-actin Relative Expression, Mean", "setting": "VE-cadherin; 100pg, Figure 2D, Con = 1.000", "result": 1.603}, {"measurement": "VE-cadherin/β-actin Relative Expression", "setting": "VE-cadherin; 100pg, Figure 2D, relative to Con, single replicates", "result": "1.56 and 1.556 and 1.562 and 1.733"}, {"measurement": "VE-cadherin/β-actin Relative Expression, Mean", "setting": "VE-cadherin; 200pg, Figure 2D, Con = 1.000", "result": 1.795}, {"measurement": "VE-cadherin/β-actin Relative Expression", "setting": "VE-cadherin; 200pg, Figure 2D, relative to Con, single replicates", "result": "1.847 and 2.268 and 1.408 and 1.657"}, {"measurement": "VE-cadherin/β-actin Mean", "setting": "VE-cadherin; Figure 2K, hCMEC/D3 cells, group mean, relative to Con", "result": 1.787}, {"measurement": "VE-cadherin/β-actin Relative Expression", "setting": "VE-cadherin; Figure 2K, hCMEC/D3 cells, individual replicates, relative to Con", "result": "2.089 and 1.381 and 1.914 and 1.765"}, {"measurement": "VE-cadherin/β-actin Relative Expression, Mean", "setting": "VE-cadherin; Figure 5G, hCMEC/D3 cells, group mean, NC = 1.000", "result": 1.370}, {"measurement": "VE-cadherin/β-actin Relative Expression", "setting": "VE-cadherin; Figure 5G, hCMEC/D3 cells, single replicates, relative to NC group", "result": "1.534 and 1.457 and 1.274 and 1.216"}, {"measurement": "VE-cadherin expression", "setting": "VE-cadherin; hCMEC/D3 cells incubated with conditioned medium or neurotrophic factor vs normal medium", "result": "induced the expression of claudin-5 and VE-cadherin in a concentration-dependent manner"}, {"measurement": "VE-cadherin/β-actin Relative Expression, Mean", "setting": "VE-cadherin; relative to Con (mean 1.000), mean of 4, Figure 3A", "result": 1.424}, {"measurement": "VE-cadherin/Tubulin Relative Expression Mean", "setting": "VE-cadherin; relative to Con (mean 1.000), mean of 4, Figure 3B", "result": 1.899}, {"measurement": "VE-cadherin/β-actin Relative Expression, Mean", "setting": "VE-cadherin; relative to Con (mean 1.000), mean of 4, Figure 3C", "result": 1.775}, {"measurement": "VE-cadherin/Tubulin Relative Expression Mean", "setting": "VE-cadherin; relative to Con (mean 1.000), mean of 4, Figure 3D", "result": 1.478}, {"measurement": "VE-cadherin/β-actin Relative Expression", "setting": "VE-cadherin; relative to Con (mean 1.000), single replicates, Figure 3A", "result": "1.437 and 1.554 and 1.424 and 1.283"}, {"measurement": "VE-cadherin/Tubulin Relative Expression", "setting": "VE-cadherin; relative to Con (mean 1.000), single replicates, Figure 3B", "result": "1.415 and 1.823 and 2.246 and 2.110"}, {"measurement": "VE-cadherin/β-actin Relative Expression", "setting": "VE-cadherin; relative to Con (mean 1.000), single replicates, Figure 3C", "result": "1.887 and 1.656 and 1.568 and 1.989"}, {"measurement": "VE-cadherin/Tubulin Relative Expression", "setting": "VE-cadherin; relative to Con (mean 1.000), single replicates, Figure 3D", "result": "1.343 and 1.350 and 1.787 and 1.430"}]}]}
